Data as given in the nanobody polyreactivity screen of Harvey et al. (2022).

Experiment: yeast display, Sf9 membrane polyspecificity reagent, FACS + sequencing; frameworks hold sequencing errors
Summary of the method: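 Polyreactivity labels are assigned by the sorting gate from which each nanobody was recovered. The gates were low and high (top ~1%), set on anti-HA fluorescence for expression and streptavidin fluorescence for reagent binding. Before sorting, galactose-induced (36–48 hours) yeast display cells were stained for 1 hour at 4 °C with 10% biotinylated, detergent-solubilized Sf9 membrane reagent.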

Row | Sequence | polyreactivity (PSR sort gate)
1 | QVQLQESGGLVQAGGLRLSCAASGSVSYQEAMGWYRQAPGKERELVATISFGAKTNYADSVKGRFTISRDNAKNTVYLHINSLNPEDTAVYYCAAESLFDDYYGYWGQGTQVTVSS | low polyreactivity
2 | QVQLQESGGRLVQASGSIFHEPNMGWHRQAPGKERELVATISDGAITNYADSVKGRFTISRDNAKNTVYLQMNSLIPEDTAVYYCAATGGLNGALSRLEYWGQGTQVSVSS | high polyreactivity
3 | QVQLQESGGRLVQSGGSLRPSCAASGSISDGVPMGWNSQAPGDERELVATTVLGATTNNADSVKGRFTISRGNAKNTVYLQMNSLKPEETAVYYCAAPLRYDKGFSYWGQGTQVTVSS | low polyreactivity
4 | QVQLQESGSGLVQAGGSLRLSCAASGNISHYNDMGWYRQAPGKEREPVATINSGSITYYADSVKGRFTISRDNAKYTVYLQMNSLKPEDTAVYYCAVKQHGYFYLDYWGQGTQVTVSS | high polyreactivity
5 | QVQLQESGSGQVQAGGSLRLSCAASGAIFPAYLMGWYRQAPGKERELVAGISYGSITYCADSVKGRFNISRDNAKNTVYLQMNSLKPEDTAVYYCAVWRPGGDEYYYWGQGTQVTVSS | low polyreactivity
6 | QVQLQESRGGLVQAGGSLRLGFAASGNISDAGNKGWYRQAPGKEREFVAAIAAGSNTNYADSVKGRFTISRDNAKNTVYLQMNSLKPEDTAVFYCAVAYYARLQYEYWGQGTQVTVKS | low polyreactivity
7 | QVQLQESSGGLVQAGGSLRMSCAASGTIFHFHIMGWYRQAPGKVREFVAAISYGTSTYYADSVKGRFTISRDNAKNTVYLLMNRQKPEDTEVYYCAVYEYLEVYCWYWGQGTQGTVSS | low polyreactivity
8 | QVQLQESVGGLVQAGGSLRLSCAASGNIFPTDRMGWYRQAPGKELEFVATISHGGSTNYADSVKGRFTISRDNAKNTVYLQMNSLKPEDTAVFYCAVWSLGRWRHYYWGQGTQVTVSS | low polyreactivity
9 | QVQLQESVGGLVQAGGSLRLSCAASGYISSWYPMGWYRQAPGKEREFVATIAPVATTYYADSVKGRFTISRDYAKNSVYLQMNSLKPEDTAVYYCAAGPENNDFYSYWGQGTQVTVSS | low polyreactivity
10 | QVQLQESVGGLVQAGRSLRLSCAASGYISHADEMGWYRQAPGKEHELVASISNGGSTNYADSVKGRFTISRDNANNTVYLQMNSLKSVDTAVYFCAAWTGQVDIHYYWGQGTQVTVSS | low polyreactivity
11 | QVQLQESVGSLVQAGGSLRLSCAASGSISILQYMGWYRQAHGKELELVAGINWGATTYYADSVKGRLTTSRDYAKKTVYLQMNSLKPEDTAVYYCAVPTFYSYPVLYWGQGTQVTVSS | low polyreactivity
12 | QVQLQESVVCLVQALGSLRLSCAASGNISDYYDMGWYGHAPGKERKFVAGIDFGAITNYADSVKGRFTISRDNAKNTEYMQMSSLKPEDTAVYYCAAGVYDWYAYDYWGQGTQVTVSS | high polyreactivity
13 | QVQLQETRGGLDQAGDSLRLRCAASVSTLPVYTIARYRKAAVKEREFVAANTYTGGRTYYSDSVKGRFTISRDNAKNSVYLQMKSLKPDDTAVYYCAAEYGTYFVRYFAGASYRYGYWGQGTQVTVSS | low polyreactivity
14 | QVQLRESGAGGRQPAPELRGERQYFYWSADGLVSQAPGKEREFVAGIDRGTITNYADSVRGRFTISRDNAKKTVYLQMNSLKPEDTAVYYCAVPAYGDPSSYYWGQGTHVTVSS | high polyreactivity
15 | QVQLVASGGGLVQAGGSLRLSCAASGGTFFYNAKGWYRQAPGKERELVAAINGGTSTNYADSVKGRFTISRDNAKNTDYLQRNSLKPEDTAVYYCAAVYRRLGRSDWYDYWGQGTQVTVSS | low polyreactivity
16 | QVQLVASGGGLVQAGGSLRLSCAASGRIFDAYAMGWYRQAPGKERELVAAIDFSAGSTYYADSVKGRFTISRDNAQNTVYLQMNSLKPEDTAVYYCATRLGVLYDCWGQGTQVTVSS | low polyreactivity
17 | QVQLVASGGGLVQAGGSLRLSCAASGSNFAYNGMGWYRLAPGKERELVAAMSWNGGTTYYADSVKGRFTISRDKAKKNVYLQRNSLKPEDTAVYYCATDSYYFREYDYWGQGTQVTVSS | low polyreactivity
18 | QVQLVASGGGLVQAGGSLRLTCAASGSIFYAYAMGWSRQAPGKERELVASINSGGNTYYADSVKGRFTISRDNAKNTDYLQMNSLKAEATAVYYCAVDSKDNNDHWGQGTQVTVSS | low polyreactivity
19 | QVQLVASGGGLVQSGGSLRLSCAASGTTFGYYAMGWYIQAPGKERELVAAITKSGGSTFYAESVKGRFTISRDNAKNTVYLQMNSLKPEDTAVYYCAARYKGQYYRQGRHDYWGQGTQVTVSS | high polyreactivity
20 | QVQLVDSAGVLVQAGGSLSLICAASGRTYGIYAMGWYRQAPGKERELVADISSDASTSYAYSVKGRFTISRDNAKNTVYLQMNSLKAEDTAVYYCAADPGPYYDWGYYYWGQGTQVTVSS | low polyreactivity
21 | QVQLVDSGGALVQAGGSLRLSCAASGFIFRDNAMGWYRQAPGKESELVAAISSRGGSTYYADSVKGRFTISRDYAKNSVYLQMNRLKPEDTAVYYCAIRPYKSRVQMDCWGQGTQVTVSS | high polyreactivity
22 | QVQLVDSGGALVQAGGSLRLSCAASGPTFYTKTMGSYRQAPGKERELVAVISSGGGSTYYSDSVKGRFTISRDNAKNTVYLQMNSLKPEDTAVYYCAKRRGGQGNYWGQGPQVTVSS | high polyreactivity

Row | Sequence | polyreactivity (PSR sort gate)
23 | QVQLVDSGGALVQAGGSLSLSCAASGGKYDSYAMGWYRQAPGKERELVASISRSGSTNYADSVKGRFTISRDNAMNTVYLQMNSLNPEDTAVYYCAASVRGIRYDYWGQGTQVTVSS | low polyreactivity
24 | QVQLVDSGGCLVQAGGSLRLSCAASGFIFNFYAMGWYRQAPRQQREFVAAISTRGGSTYYADSVKGRFTISRDNAKNTVFLQMKSLKPEDTAVYYCAARRFWGSRRLDYWGQCTQVTVSS | high polyreactivity
25 | QVQLVDSGGDLVQAGGSLSLSCAASGRIFVYYAMGWYRQAPGTERELVAVITSVGSTYYADSVKGRFTISRDNAKNTVYLQMNSLKPEDTAVYYCAAEWEYYGFDYWGQGTQVTVSS | low polyreactivity
26 | QVQLVDSGGGIVQAGGSLRLSCAASGSTFVANAMGWYRQAPGKECEFVAAISRSGVRTYYADSVKGRFTISRDNAKNTVYLQMNSLKPEDTAVYYCAADGYWWTYSRYDYWGQGTQVTVSS | low polyreactivity
27 | QVQLVDSGGGIVQAGGSLRLSCAASGSTFYSYAMGWYTQAPGKERELVAAINRDGVSTYYSDSVKGRFTISRYNAKNTVYLLMNSLKPEDTAVYYCNARHQTLRSYRYDYWGQGTQVSVSS | low polyreactivity
28 | QVQLVDSGGGIVQEGGSRRLSCAASGSIFVNYAMGWYRQAPGKERELVAAITLRGVSTFYADSVKGRFTISRDNAKNTVYLQMNSLKPEETAVYYCAASSLRYRAYKSLFDYWGQGTQVTVSS | low polyreactivity
29 | QVQLVDSGGGLGQAVGILRLSCAASGNIFLYYAMGWYRQAPGKEREMVAAISWSGSSTYYADSVKGRFTISRYNAKNTVYLQMNSLKPEVTAVYYCNATTSSKDAFCFILVFGQGDYWGQGTQVSVSS | low polyreactivity
30 | QVQLVDSGGGLVQAGASLRLSCAASGRTFYPYAMGWYRQAPAKERELDAAISSKGGITYYADSVKGRFTISRDNAKNTVYLQMNSLNPEDTAVYYCAALYTGESGYWGQGTQVSVSS | high polyreactivity
31 | QVQLVDSGGGLVQAGGRLRISSAASGRISQGNAMGWYRQAPGKERELVAGISRSGGSTYYADSVKGRFTISRDNAKKTVYLQMNSLKPEDTAVYYCAARYYWRGYYWGQGTQVTVSS | high polyreactivity
32 | QVQLVDSGGGLVQAGGRLRLSCAASGNNFVEYAMGWYRPAPGKERELVAAITNSGGRTHYADSVKRRFTISRDNAKNTVYLQMNSLKPEDTGVYYCAAPTKYRSRRYYWGQGTLVTVSS | high polyreactivity
33 | QVQLVDSGGGLVQAGGRLRLSCAASGRTFSVNAMGWYRQAPGKERELVAAIRWRAGSTYYADSVKGRFTISRDNAKNTVYLQMNSLKPEDTAVYYCNAVTYGGRTLFPYDYWGQGTQVTVSS | high polyreactivity
34 | QVQLVDSGGGLVQAGGRLRLSCAASGSTFRLYAMGWYRQAPGKERELVAAISSNGVRTYYADSVKGRFTISRDNAKNTVYLQLNSLKPEDTAVYYCAARVYPAYPRGYDYWGQGTQVTVSS | high polyreactivity
35 | QVQLVDSGGGLVQAGGSHRLSCAASGRIFGDNAMGWYRQAPGKERELVAAIDWNDGNTYYADSVKGRFTISRDNANNTVYLQMNSLKPEDTAVYYCNTAGQDAEYDYWGQGTQVTVSS | low polyreactivity
36 | QVQLVDSGGGLVQAGGSIRLSCSPSGGTFGLNSMGWYRQAPGQERELVADIDGRGGSTYYADSVKGRFTISRDNAKNTVYLQMNRLKPEDPAVYYCADLAPFLSVPSELDYWRQGTQVTVSS | low polyreactivity
37 | QVQLVDSGGGLVQAGGSLPLSCAASGRIIAHYALGWYRQAPGKERELVAAIRRSGVSTYYADSVKGRFTISRDNANNTVYLQMHSLKPEDTAVYYCNARAYVSPYDYWGHGTQVTVSS | low polyreactivity
38 | QVQLVDSGGGLVQAGGSLPLSCAASGSIFSFYAMGWYRQAPGKERELVAAISGNGGRTYYADSVKGRFTISRDNAKNSVYLQMNSLKPEDTAVYYCAAYNSPRLCYWGQGTQVTVSS | high polyreactivity
39 | QVQLVDSGGGLVQAGGSLRFSCAASGSIFYSNAMGWYRQAPGKERELVAAISDGGTSTYYADSVKVRFTISRDNAKNTVYLQMNSLKPEDTAVYYCAAESTLQDWNWYKYYYWGQGTQVTVSS | low polyreactivity
40 | QVQLVDSGGGLVQAGGSLRISCAASGRTFYWYAMGWSRQAPGKEREFVAAISWNVGSTYYADSVKGRFTISRDHAKNTVYLQMNSLKPEDTAVYYCAAELGYPYSTYADWYYYWGQGTQVTVSS | high polyreactivity
41 | QVQLVDSGGGLVQAGGSLRLICAASGSTFARNTMGWYRQAPGKETELVAVISRGDSTYYADSVKGRFTISRDNAKNSVYLQMNSLKPEDTAVNYCIAYLRYAYPSKMDYWGQGTQVTVSS | low polyreactivity
42 | QVQLVDSGGGLVQAGGSLRLICAASGSTFNYYAMGSYRQAPGKERELVAAISYSSGRTYYADSVKGRFTISRDNSKNTVYLQMNSMKPEDTAVYYCAADRYMVSSSVHSFGYWGQGTQVTVSS | high polyreactivity
43 | QVQLVDSGGGLVQAGGSLRLSCAASGFIFIFYTMGWYRQAPGNERELVAAISRSGGSTYYADSVKGRFTISRDNAKNTVYLQMNSLKPEDTAVYYCAARAKLSHRWRSYYWGQGTQVTVSS | high polyreactivity
